Values belong to the binder of their own block, whether it stands above or below them. Numbered stars: 1 amine (or outer) side, 2 acyl side, 3 side chain; on linkers, the order of the positions; unused ones are H or OH. Square brackets hold non-standard residues; d marks the D form. Side chains are listed from the residue outwards. Ends that are not written are not given here. * marks the point of attachment. C20 diacid = O=C(O)CCCCCCCCCCCCCCCCCCC(=O)*; γGlu = O=C(O)[C@H](CCC(=O)[*:2])N[*:1]; AEEA = NCCOCCOCC(=O)O; Aib = CC(C)(N)C(=O)O
Key:
[1] = molecular target: human GLP-1 receptor (hGLP1R) (human, UniProt P43220 24-463); assay: cell-based or functional assay
[2] = molecular target: human secretin receptor (hSCTR) (human, UniProt P47872 23-440); assay: cell-based or functional assay
Sequence of human secretin receptor (hSCTR) (P47872 23-440): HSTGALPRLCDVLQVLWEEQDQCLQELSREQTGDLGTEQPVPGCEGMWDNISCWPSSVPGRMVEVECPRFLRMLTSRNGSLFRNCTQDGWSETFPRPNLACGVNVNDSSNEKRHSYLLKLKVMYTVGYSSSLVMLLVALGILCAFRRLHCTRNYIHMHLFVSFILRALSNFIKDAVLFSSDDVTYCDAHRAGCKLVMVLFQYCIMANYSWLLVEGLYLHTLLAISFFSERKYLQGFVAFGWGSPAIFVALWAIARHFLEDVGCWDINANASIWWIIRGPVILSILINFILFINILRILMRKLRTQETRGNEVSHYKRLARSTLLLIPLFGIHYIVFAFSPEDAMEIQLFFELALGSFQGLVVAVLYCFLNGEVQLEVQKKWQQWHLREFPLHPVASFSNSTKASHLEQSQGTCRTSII

B1: SEQ ID NO: 31 (peptide)
peptide: H[Aib]EGTFTSDVSELK([AEEA-AEEA-γGlu-C20 diacid])EFAAEQRFLEHLV-NH2
pEC50 hGLPR1 [1]: 10.4 -log M | pEC50 hSCTR [2]: 5.2 -log M

B2: SEQ ID NO: 40 (peptide)
peptide: H[Aib]EGTFTSDVSVLK([AEEA-AEEA-γGlu-C20 diacid])E[Aib]AAQQRFLEHLV-NH2
pEC50 hGLPR1 [1]: 10.7 -log M | pEC50 hSCTR [2]: 6.4 -log M

B3: SEQ ID NO: 39 (peptide)
peptide: H[Aib]EGTFTSDVSTLK([AEEA-AEEA-γGlu-C20 diacid])EEAAQQRFLEHLV-NH2
pEC50 hGLPR1 [1]: 10.8 -log M | pEC50 hSCTR [2]: 6.5 -log M

B4: SEQ ID NO: 3 (peptide)
peptide: H[Aib]EGTFTSDVSRLK([AEEA-AEEA-γGlu-C20 diacid])ELAAQQRFLEHLV-NH2
pEC50 hGLPR1 [1]: 10.8 -log M | pEC50 hSCTR [2]: 7.1 -log M

B5: SEQ ID NO: 32 (peptide)
peptide: H[Aib]EGTFTSDVSTLK([AEEA-AEEA-γGlu-C20 diacid])E[Aib]AA[Aib]QRFLEHLV-NH2
pEC50 hGLPR1 [1]: 10.6 -log M | pEC50 hSCTR [2]: 6.2 -log M

B6: SEQ ID NO: 37 (peptide)
peptide: H[Aib]EGTFTSDVSFLK([AEEA-AEEA-γGlu-C20 diacid])EEAA[Aib]QRFLEHLV-NH2
pEC50 hGLPR1 [1]: 10.9 -log M | pEC50 hSCTR [2]: 5.7 -log M

B8: SEQ ID NO: 22 (peptide)
peptide: H[Aib]EGTFTSDVSRLK([AEEA-AEEA-γGlu-C20 diacid])EEAAEQRFLEHLV-NH2
pEC50 hGLPR1 [1]: 10.7 -log M | pEC50 hSCTR [2]: 6.4 -log M

B9: SEQ ID NO: 29 (peptide)
peptide: H[Aib]EGTFTSDVSVLK([AEEA-AEEA-γGlu-C20 diacid])EFAAAQRFLEHLV-NH2
pEC50 hGLPR1 [1]: 10 -log M | pEC50 hSCTR [2]: 6.1 -log M

B10: SEQ ID NO: 25 (peptide)
peptide: H[Aib]EGTFTSDVSFLK([AEEA-AEEA-γGlu-C20 diacid])ETAA[Aib]QRFLEHLV-NH2
pEC50 hGLPR1 [1]: 9 -log M | pEC50 hSCTR [2]: 5.1 -log M

B11: SEQ ID NO: 30 (peptide)
peptide: H[Aib]EGTFTSDVSYLK([AEEA-AEEA-γGlu-C20 diacid])EEAATQRFLEHLV-NH2
pEC50 hGLPR1 [1]: 10.9 -log M | pEC50 hSCTR [2]: 6.6 -log M

B12: SEQ ID NO: 36 (peptide)
peptide: H[Aib]EGTFTSDVSELK([AEEA-AEEA-γGlu-C20 diacid])ELAAEQRFLEHLV-NH2
pEC50 hGLPR1 [1]: 10.5 -log M | pEC50 hSCTR [2]: 6.5 -log M

B13: SEQ ID NO: 28 (peptide)
peptide: H[Aib]EGTFTSDVSVLK([AEEA-AEEA-γGlu-C20 diacid])EEAAAQRFLEHLV-NH2
pEC50 hGLPR1 [1]: 10.7 -log M | pEC50 hSCTR [2]: 5.9 -log M

B16: SEQ ID NO: 35 (peptide)
peptide: H[Aib]EGTFTSDVSVLK([AEEA-AEEA-γGlu-C20 diacid])EEAA[Aib]QRFLEHLV-NH2
pEC50 hGLPR1 [1]: 10.8 -log M | pEC50 hSCTR [2]: 6.1 -log M

B18: SEQ ID NO: 26 (peptide)
peptide: H[Aib]EGTFTSDVSRLK([AEEA-AEEA-γGlu-C20 diacid])ETAATQRFLEHLV-NH2
pEC50 hGLPR1 [1]: 10.9 -log M | pEC50 hSCTR [2]: 7.2 -log M

B19: SEQ ID NO: 23 (peptide)
peptide: H[Aib]EGTFTSDVSRLK([AEEA-AEEA-γGlu-C20 diacid])ETAAAQRFLEHLV-NH2
pEC50 hGLPR1 [1]: 10.7 -log M | pEC50 hSCTR [2]: 6.8 -log M

B21: SEQ ID NO: 38 (peptide)
peptide: H[Aib]EGTFTSDVSFLK([AEEA-AEEA-γGlu-C20 diacid])EEAASQRFLEHLV-NH2
pEC50 hGLPR1 [1]: 10.5 -log M | pEC50 hSCTR [2]: 6 -log M

B22: SEQ ID NO: 33 (peptide)
peptide: H[Aib]EGTFTSDVSVLK([AEEA-AEEA-γGlu-C20 diacid])ELAAQQRFLEHLV-NH2
pEC50 hGLPR1 [1]: 10.2 -log M | pEC50 hSCTR [2]: 6.5 -log M

B26: SEQ ID NO: 4 (peptide)
peptide: H[Aib]EGTFTSDVSYLK([AEEA-AEEA-γGlu-C20 diacid])ETAATQRFLEHLV-NH2
pEC50 hGLPR1 [1]: 11.1 -log M | pEC50 hSCTR [2]: 7 -log M

B27: SEQ ID NO: 24 (peptide)
peptide: H[Aib]EGTFTSDVSRLK([AEEA-AEEA-γGlu-C20 diacid])EFAAQQRFLEHLV-NH2
pEC50 hGLPR1 [1]: 10.3 -log M | pEC50 hSCTR [2]: 6.8 -log M

B28: SEQ ID NO: 21 (peptide)
peptide: H[Aib]EGTFTSDVSRLK([AEEA-AEEA-γGlu-C20 diacid])ETAAQQRFLEHLV-NH2
pEC50 hGLPR1 [1]: 10.9 -log M | pEC50 hSCTR [2]: 6.7 -log M

B29: SEQ ID NO: 27 (peptide)
peptide: H[Aib]EGTFTSDVSFLK([AEEA-AEEA-γGlu-C20 diacid])EFAA[Aib]QRFLEHLV-NH2
pEC50 hGLPR1 [1]: 10 -log M | pEC50 hSCTR [2]: 5.5 -log M

B30: SEQ ID NO: 34 (peptide)
peptide: H[Aib]EGTFTSDVSRLK([AEEA-AEEA-γGlu-C20 diacid])ETAAEQRFLEHLV-NH2
pEC50 hGLPR1 [1]: 10.6 -log M | pEC50 hSCTR [2]: 6.4 -log M

More lines, now with the values ahead:

pEC50 hGLPR1 [1]: 11.1 -log M | pEC50 hSCTR [2]: 6.9 -log M
B7: SEQ ID NO: 41 (peptide)
peptide: H[Aib]EGTFTSDVSVLK([AEEA-AEEA-γGlu-C20 diacid])ETAAQQRFLEHLV-NH2

pEC50 hGLPR1 [1]: 10.3 -log M | pEC50 hSCTR [2]: 5.4 -log M
B14: SEQ ID NO: 46 (peptide)
peptide: H[Aib]EGTFTSDVSYLK([AEEA-AEEA-γGlu-C20 diacid])EFAA[Aib]QRFLEHLV-NH2

pEC50 hGLPR1 [1]: 10.8 -log M | pEC50 hSCTR [2]: 5.5 -log M
B15: SEQ ID NO: 42 (peptide)
peptide: H[Aib]EGTFTSDVSTLK([AEEA-AEEA-γGlu-C20 diacid])ETAAEQRFLEHLV-NH2

pEC50 hGLPR1 [1]: 10.7 -log M | pEC50 hSCTR [2]: 6.9 -log M
B17: SEQ ID NO: 49 (peptide)
peptide: H[Aib]EGTFTSDVSVLK([AEEA-AEEA-γGlu-C20 diacid])E[Aib]AATQRFLEHLV-NH2

pEC50 hGLPR1 [1]: 10.9 -log M | pEC50 hSCTR [2]: 7.9 -log M
B20: SEQ ID NO: 201 (peptide)
peptide: H[Aib]EGTFTSDYSYLLEGAALQRFIQWLV-NH2
modifications: N-terminus assumed
SMILES: CC[C@H](C)[C@H](NC(=O)[C@H](Cc1ccccc1)NC(=O)[C@H](CCCNC(=N)N)NC(=O)[C@H](CCC(N)=O)NC(=O)[C@H](CC(C)C)NC(=O)[C@H](C)NC(=O)[C@H](C)NC(=O)CNC(=O)[C@H](CCC(=O)O)NC(=O)[C@H](CC(C)C)NC(=O)[C@H](CC(C)C)NC(=O)[C@H](Cc1ccc(O)cc1)NC(=O)[C@H](CO)NC(=O)[C@H](Cc1ccc(O)cc1)NC(=O)[C@H](CC(=O)O)NC(=O)[C@H](CO)NC(=O)[C@@H](NC(=O)[C@H](Cc1ccccc1)NC(=O)[C@@H](NC(=O)CNC(=O)[C@H](CCC(=O)O)NC(=O)C(C)(C)NC(=O)[C@@H](N)Cc1c[nH]cn1)[C@@H](C)O)[C@@H](C)O)C(=O)N[C@@H](CCC(N)=O)C(=O)N[C@@H](Cc1c[nH]c2ccccc12)C(=O)N[C@@H](CC(C)C)C(=O)N[C@H](C(N)=O)C(C)C

pEC50 hGLPR1 [1]: 10.7 -log M | pEC50 hSCTR [2]: 5.7 -log M
B23: SEQ ID NO: 45 (peptide)
peptide: H[Aib]EGTFTSDVSELK([AEEA-AEEA-γGlu-C20 diacid])ETAA[Aib]QRFLEHLV-NH2

pEC50 hGLPR1 [1]: 10.8 -log M | pEC50 hSCTR [2]: 6.6 -log M
B24: SEQ ID NO: 47 (peptide)
peptide: H[Aib]EGTFTSDVSYLK([AEEA-AEEA-γGlu-C20 diacid])EEAAQQRFLEHLV-NH2

pEC50 hGLPR1 [1]: 10.6 -log M | pEC50 hSCTR [2]: 6.9 -log M
B25: SEQ ID NO: 48 (peptide)
peptide: H[Aib]EGTFTSDVSYLK([AEEA-AEEA-γGlu-C20 diacid])E[Aib]AATQRFLEHLV-NH2

pEC50 hGLPR1 [1]: 10.5 -log M | pEC50 hSCTR [2]: 5.4 -log M
B31: SEQ ID NO: 44 (peptide)
peptide: H[Aib]EGTFTSDVSFLK([AEEA-AEEA-γGlu-C20 diacid])ETAAAQRFLEHLV-NH2

pEC50 hGLPR1 [1]: 11 -log M | pEC50 hSCTR [2]: 6.5 -log M
B32: SEQ ID NO: 43 (peptide)
peptide: H[Aib]EGTFTSDVSTLK([AEEA-AEEA-γGlu-C20 diacid])E[Aib]AAAQRFLEHLV-NH2

pEC50 hGLPR1 [1]: 10.4 -log M | pEC50 hSCTR [2]: 7.4 -log M
B33: SEQ ID NO: 202 (peptide)
peptide: H[Aib]EGTFTSDYSFLLEGAALQRFIQWLV-NH2
modifications: N-terminus assumed
SMILES: CC[C@H](C)[C@H](NC(=O)[C@H](Cc1ccccc1)NC(=O)[C@H](CCCNC(=N)N)NC(=O)[C@H](CCC(N)=O)NC(=O)[C@H](CC(C)C)NC(=O)[C@H](C)NC(=O)[C@H](C)NC(=O)CNC(=O)[C@H](CCC(=O)O)NC(=O)[C@H](CC(C)C)NC(=O)[C@H](CC(C)C)NC(=O)[C@H](Cc1ccccc1)NC(=O)[C@H](CO)NC(=O)[C@H](Cc1ccc(O)cc1)NC(=O)[C@H](CC(=O)O)NC(=O)[C@H](CO)NC(=O)[C@@H](NC(=O)[C@H](Cc1ccccc1)NC(=O)[C@@H](NC(=O)CNC(=O)[C@H](CCC(=O)O)NC(=O)C(C)(C)NC(=O)[C@@H](N)Cc1c[nH]cn1)[C@@H](C)O)[C@@H](C)O)C(=O)N[C@@H](CCC(N)=O)C(=O)N[C@@H](Cc1c[nH]c2ccccc12)C(=O)N[C@@H](CC(C)C)C(=O)N[C@H](C(N)=O)C(C)C
